# From IntAct's records for PubMed 29477555
# B1: Serine protease HTRA3 (Homo sapiens), P83110-2 (parent)
# chain: MQARALLLAALAALALAREPPAAPCPARCDVSRCPSPRCPGGYVPDLCNCCLVCAASEGEPCGGPLDSPCGESLECVRGLCRCRWSHAVCGTDGHTYANVCALQAASRRALQLSGTPVRQLQKGACPLGLHQLSSPRYKFNFIADVVEKIAPAVVHIELFLRHPLFGRNVPLSSGSGFIMSEAGLIITNAHVVSSNSAAPGRQQLKVQLQNGDSYEATIKDIDKKSDIATIKIHPKKKLPVLLLGHSADLRPGEFVVAIGSPFALQNTVTTGIVSTAQREGRELGLRDSDMDYIQTDAIINYGNSGGPLVNLDGEVIGINTLKVTAGISFAIPSDRITRFLTEFQDKQIKAPSLAVH
# B2: Serine protease HTRA3 (Homo sapiens), P83110-1 (parent)
# chain: MQARALLLAALAALALAREPPAAPCPARCDVSRCPSPRCPGGYVPDLCNCCLVCAASEGEPCGGPLDSPCGESLECVRGLCRCRWSHAVCGTDGHTYANVCALQAASRRALQLSGTPVRQLQKGACPLGLHQLSSPRYKFNFIADVVEKIAPAVVHIELFLRHPLFGRNVPLSSGSGFIMSEAGLIITNAHVVSSNSAAPGRQQLKVQLQNGDSYEATIKDIDKKSDIATIKIHPKKKLPVLLLGHSADLRPGEFVVAIGSPFALQNTVTTGIVSTAQREGRELGLRDSDMDYIQTDAIINYGNSGGPLVNLDGEVIGINTLKVTAGISFAIPSDRITRFLTEFQDKQIKDWKKRFIGIRMRTITPSLVDELKASNPDFPEVSSGIYVQEVAPNSPSQRGGIQDGDIIVKVNGRPLVDSSELQEAVLTESPLLLEVRRGNDDLLFSIAPEVVM
# Variants of: B1
# Settings: with tcpa_human TCP1, P17987
row,Variant,effect of a mutation on the interaction
1,S305A,decreasing interaction strength

# Variants of: B2
# Settings: with tcpa_human TCP1, P17987
# Target sequence in this assay (P17987 whole entry): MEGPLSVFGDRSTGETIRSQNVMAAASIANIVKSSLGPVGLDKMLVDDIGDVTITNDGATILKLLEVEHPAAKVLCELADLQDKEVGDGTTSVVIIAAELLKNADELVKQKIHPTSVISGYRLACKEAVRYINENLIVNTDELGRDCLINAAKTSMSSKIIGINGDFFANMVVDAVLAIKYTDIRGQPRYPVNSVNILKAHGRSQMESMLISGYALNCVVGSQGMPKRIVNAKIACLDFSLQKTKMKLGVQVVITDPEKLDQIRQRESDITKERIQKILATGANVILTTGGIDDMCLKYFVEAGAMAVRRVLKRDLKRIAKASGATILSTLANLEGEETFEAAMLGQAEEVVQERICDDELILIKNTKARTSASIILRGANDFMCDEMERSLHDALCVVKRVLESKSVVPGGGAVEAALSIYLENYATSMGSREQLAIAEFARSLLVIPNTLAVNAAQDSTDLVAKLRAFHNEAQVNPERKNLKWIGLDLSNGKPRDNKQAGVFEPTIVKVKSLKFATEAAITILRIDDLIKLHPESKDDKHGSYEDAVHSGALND
row,Variant,effect of a mutation on the interaction
1,S305A,decreasing interaction strength
